Experiments:
…2RPGWY2AL = molecular target: T1, …2RPGWY2AL; assay: peptide-array ELISA (CYS.S) [Continued]
T1 sequence (peptide, 2 = Cys(ACM)): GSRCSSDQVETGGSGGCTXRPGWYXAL

[1] = molecular target: T2, 2…; assay: peptide-array ELISA (CYS.S) [Continued]
T2 sequence (peptide, 2 = Cys(ACM)): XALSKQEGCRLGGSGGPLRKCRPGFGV

[2] = molecular target: T3, QEGCRL2…; assay: peptide-array ELISA (CYS.S) [Continued]
T3 sequence (peptide, 2 = Cys(ACM)): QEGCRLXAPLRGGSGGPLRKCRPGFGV

…2RPGWY = molecular target: T4, …2RPGWY; assay: peptide-array ELISA (CYS.S) [Continued]
T4 sequence (peptide, 2 = Cys(ACM)): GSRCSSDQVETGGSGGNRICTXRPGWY

[3] = molecular target: T5, KQEGCRL2…; assay: peptide-array ELISA (CYS.S) [Continued]
T5 sequence (peptide, 2 = Cys(ACM)): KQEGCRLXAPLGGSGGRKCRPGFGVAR

[4] = molecular target: T6, WY2…; assay: peptide-array ELISA (CYS.S) [Continued]
T6 sequence (peptide, 2 = Cys(ACM)): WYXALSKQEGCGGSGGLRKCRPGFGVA

2…2RP = molecular target: T7, 2…2RP; assay: peptide-array ELISA (CYS.S)
T7 sequence (peptide, 2 = Cys(ACM)): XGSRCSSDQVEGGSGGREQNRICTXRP

…2…2R = molecular target: T8, …2…2R; assay: peptide-array ELISA (CYS.S)
T8 sequence (peptide, 2 = Cys(ACM)): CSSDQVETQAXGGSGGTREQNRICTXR

E2LS2…2RPGW = molecular target: T9, E2LS2…2RPGW; assay: peptide-array ELISA (CYS.S)
T9 sequence (peptide, 2 = Cys(ACM)): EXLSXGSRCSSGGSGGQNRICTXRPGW

…2RPGW [5] = molecular target: T10, …2RPGW; assay: peptide-array ELISA (CYS.S)
T10 sequence (peptide, 2 = Cys(ACM)): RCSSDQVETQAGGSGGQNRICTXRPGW

…2RPG [6] = molecular target: T11, …2RPG; assay: peptide-array ELISA (CYS.S)
T11 sequence (peptide, 2 = Cys(ACM)): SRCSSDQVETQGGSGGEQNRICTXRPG

VPE2LS2…2RPG = molecular target: T12, VPE2LS2…2RPG; assay: peptide-array ELISA (CYS.S)
T12 sequence (peptide, 2 = Cys(ACM)): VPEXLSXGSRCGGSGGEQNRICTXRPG

…2R [7] = molecular target: T13, …2R; assay: peptide-array ELISA (CYS.S)
T13 sequence (peptide, 2 = Cys(ACM)): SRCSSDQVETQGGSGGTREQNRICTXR

…2…2RPG = molecular target: T14, …2…2RPG; assay: peptide-array ELISA (CYS.S)
T14 sequence (peptide, 2 = Cys(ACM)): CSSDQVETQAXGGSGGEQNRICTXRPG

S2…2RP = molecular target: T15, S2…2RP; assay: peptide-array ELISA (CYS.S)
T15 sequence (peptide, 2 = Cys(ACM)): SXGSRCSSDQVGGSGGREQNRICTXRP

…2RP [8] = molecular target: T16, …2RP; assay: peptide-array ELISA (CYS.S)
T16 sequence (peptide, 2 = Cys(ACM)): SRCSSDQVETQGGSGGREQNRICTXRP

S2…2RPG = molecular target: T17, S2…2RPG; assay: peptide-array ELISA (CYS.S)
T17 sequence (peptide, 2 = Cys(ACM)): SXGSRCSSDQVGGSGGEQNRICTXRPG

…2RPG [9] = molecular target: T18, …2RPG; assay: peptide-array ELISA (CYS.S); remark: listed apart in the source
T18 sequence (peptide, 2 = Cys(ACM)): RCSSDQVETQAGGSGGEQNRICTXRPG

LS2…2RPG = molecular target: T19, LS2…2RPG; assay: peptide-array ELISA (CYS.S)
T19 sequence (peptide, 2 = Cys(ACM)): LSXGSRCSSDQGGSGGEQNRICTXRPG

…2…2RPGW = molecular target: T20, …2…2RPGW; assay: peptide-array ELISA (CYS.S)
T20 sequence (peptide, 2 = Cys(ACM)): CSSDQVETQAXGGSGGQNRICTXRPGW

…2RP [10] = molecular target: T21, …2RP; assay: peptide-array ELISA (CYS.S); remark: listed apart in the source
T21 sequence (peptide, 2 = Cys(ACM)): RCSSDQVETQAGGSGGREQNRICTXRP

2…2RPG = molecular target: T22, 2…2RPG; assay: peptide-array ELISA (CYS.S)
T22 sequence (peptide, 2 = Cys(ACM)): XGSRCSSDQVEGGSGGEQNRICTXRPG

…2RP [11] = molecular target: T23, …2RP; assay: peptide-array ELISA (CYS.S); remark: listed apart in the source
T23 sequence (peptide, 2 = Cys(ACM)): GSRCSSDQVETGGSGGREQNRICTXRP

E2LS2…2RPG = molecular target: T24, E2LS2…2RPG; assay: peptide-array ELISA (CYS.S)
T24 sequence (peptide, 2 = Cys(ACM)): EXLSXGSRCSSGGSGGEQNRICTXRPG

…2R [12] = molecular target: T25, …2R; assay: peptide-array ELISA (CYS.S); remark: listed apart in the source
T25 sequence (peptide, 2 = Cys(ACM)): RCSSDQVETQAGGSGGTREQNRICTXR

2LS2…2RP = molecular target: T26, 2LS2…2RP; assay: peptide-array ELISA (CYS.S)
T26 sequence (peptide, 2 = Cys(ACM)): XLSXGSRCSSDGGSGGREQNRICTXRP

…2RPGW [13] = molecular target: T27, …2RPGW; assay: peptide-array ELISA (CYS.S); remark: listed apart in the source
T27 sequence (peptide, 2 = Cys(ACM)): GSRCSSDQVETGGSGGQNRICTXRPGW

…2…2RP = molecular target: T28, …2…2RP; assay: peptide-array ELISA (CYS.S)
T28 sequence (peptide, 2 = Cys(ACM)): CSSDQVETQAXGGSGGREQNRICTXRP

2LS2…2RPG = molecular target: T29, 2LS2…2RPG; assay: peptide-array ELISA (CYS.S)
T29 sequence (peptide, 2 = Cys(ACM)): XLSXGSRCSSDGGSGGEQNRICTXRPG

S2…2RPGW = molecular target: T30, S2…2RPGW; assay: peptide-array ELISA (CYS.S)
T30 sequence (peptide, 2 = Cys(ACM)): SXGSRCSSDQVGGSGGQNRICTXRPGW

2…2RPGW = molecular target: T31, 2…2RPGW; assay: peptide-array ELISA (CYS.S)
T31 sequence (peptide, 2 = Cys(ACM)): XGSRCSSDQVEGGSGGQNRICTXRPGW

E2LS2…2RP = molecular target: T32, E2LS2…2RP; assay: peptide-array ELISA (CYS.S)
T32 sequence (peptide, 2 = Cys(ACM)): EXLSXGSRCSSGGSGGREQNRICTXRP

2LS2…2RPGW = molecular target: T33, 2LS2…2RPGW; assay: peptide-array ELISA (CYS.S)
T33 sequence (peptide, 2 = Cys(ACM)): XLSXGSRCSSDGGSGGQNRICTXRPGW

…2RPG [14] = molecular target: T34, …2RPG; assay: peptide-array ELISA (CYS.S); remark: listed apart in the source
T34 sequence (peptide, 2 = Cys(ACM)): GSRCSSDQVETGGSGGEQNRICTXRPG

PE2LS2…2RPGW = molecular target: T35, PE2LS2…2RPGW; assay: peptide-array ELISA (CYS.S)
T35 sequence (peptide, 2 = Cys(ACM)): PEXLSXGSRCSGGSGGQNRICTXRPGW

LS2…2RP = molecular target: T36, LS2…2RP; assay: peptide-array ELISA (CYS.S)
T36 sequence (peptide, 2 = Cys(ACM)): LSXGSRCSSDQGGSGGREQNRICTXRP

PE2LS2…2RPG = molecular target: T37, PE2LS2…2RPG; assay: peptide-array ELISA (CYS.S)
T37 sequence (peptide, 2 = Cys(ACM)): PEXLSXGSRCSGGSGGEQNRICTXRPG

VPE2LS2…2RPGW = molecular target: T38, VPE2LS2…2RPGW; assay: peptide-array ELISA (CYS.S)
T38 sequence (peptide, 2 = Cys(ACM)): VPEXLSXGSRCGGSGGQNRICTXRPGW

LS2…2RPGW = molecular target: T39, LS2…2RPGW; assay: peptide-array ELISA (CYS.S)
T39 sequence (peptide, 2 = Cys(ACM)): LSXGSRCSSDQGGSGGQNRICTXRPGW

…2RPGW [15] = molecular target: T40, …2RPGW; assay: peptide-array ELISA (CYS.S); remark: listed apart in the source
T40 sequence (peptide, 2 = Cys(ACM)): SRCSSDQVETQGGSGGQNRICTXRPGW

VPE2LS2…2RP = molecular target: T41, VPE2LS2…2RP; assay: peptide-array ELISA (CYS.S)
T41 sequence (peptide, 2 = Cys(ACM)): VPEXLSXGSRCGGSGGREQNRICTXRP

PE2LS2…2RP = molecular target: T42, PE2LS2…2RP; assay: peptide-array ELISA (CYS.S)
T42 sequence (peptide, 2 = Cys(ACM)): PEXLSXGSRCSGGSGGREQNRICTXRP

B1: antagonistic TNFR2 antibody TNFRAB1 (antibody, V domains shown)
VH: EVQLQESGGGLVKPGGSLKLSCAASGFTFSSYVMSWVRQTPEKRLEWVATISSGGSYTYYPDSVKGRFTISRDNAKNTLYLQMSSLRSEDTAMYYCARQRVDGYSSYWYFDVWGAGTAVTVSS
VL: DIVLTQSPAIMSASPGEKVTITCSASSSVYYMYWFQQKPGTSPKLWIYSTSNLASGVPVRFSGSGSGTSYSLTISRMEAEDAATYYCQQRRNYPYTFGGGTKLEIKR
- Raw luminescence data (…2RPGWY2AL): 464
- Raw luminescence data [1]: 414
- Raw luminescence data [2]: 558
- Raw luminescence data (…2RPGWY): 587
- Raw luminescence data [3]: 430
- Raw luminescence data [4]: 336
- Raw luminescence data (2…2RP): 228
- Raw luminescence data (…2…2R): 179
- Raw luminescence data (E2LS2…2RPGW): 482
- Raw luminescence data (…2RPGW [5]): 507
- Raw luminescence data (…2RPG [6]): 222
- Raw luminescence data (VPE2LS2…2RPG): 225
- Raw luminescence data (…2R [7]): 177
- Raw luminescence data (…2…2RPG): 248
- Raw luminescence data (S2…2RP): 247
- Raw luminescence data (…2RP [8]): 157
- Raw luminescence data (S2…2RPG): 235
- Raw luminescence data (…2RPG [9]): 183
- Raw luminescence data (LS2…2RPG): 244
- Raw luminescence data (…2…2RPGW): 493
- Raw luminescence data (…2RP [10]): 130
- Raw luminescence data (2…2RPG): 221
- Raw luminescence data (…2RP [11]): 166
- Raw luminescence data (E2LS2…2RPG): 152
- Raw luminescence data (…2R [12]): 125
- Raw luminescence data (2LS2…2RP): 262
- Raw luminescence data (…2RPGW [13]): 466
- Raw luminescence data (…2…2RP): 250
- Raw luminescence data (2LS2…2RPG): 214
- Raw luminescence data (S2…2RPGW): 364
- Raw luminescence data (2…2RPGW): 493
- Raw luminescence data (E2LS2…2RP): 323
- Raw luminescence data (2LS2…2RPGW): 345
- Raw luminescence data (…2RPG [14]): 202
- Raw luminescence data (PE2LS2…2RPGW): 543
- Raw luminescence data (LS2…2RP): 261
- Raw luminescence data (PE2LS2…2RPG): 229
- Raw luminescence data (VPE2LS2…2RPGW): 577
- Raw luminescence data (LS2…2RPGW): 291
- Raw luminescence data (…2RPGW [15]): 402
- Raw luminescence data (VPE2LS2…2RP): 318
- Raw luminescence data (PE2LS2…2RP): 291
